According to US20060234917A1:

Legend:
[1] = target: BAFF (Homo sapiens (Human)) (UniProt Q9Y275); assay: BIAcore 3000, solution-phase equilibrium binding, fit to a quadratic equation
[2] = target: BAFF (Homo sapiens (Human)) (UniProt Q9Y275); assay: BIAcore 3000, solution-phase equilibrium binding; free BAFF read on a BCMA-Fc chip; apparent KD

Row | Substance | stoichiometry (BAFF:BAFF-R:Fc) (BAFF:BAFF-R:Fc) [1] | Kd [2] [µM]
1 | vBAFF-R(R3-A49):Fc (from UniProt Q96RJ3 2-48) (Fc fusion) | 1 | < 200
2 | vBAFF-R(R3-A72):Fc (from UniProt Q96RJ3 2-71) (Fc fusion) | 1 | < 200
